Laboratory results taken from US10088479B2, “Biomarker and uses thereof” (ISIS INNOVATION LIMITED, priority 2014, dated 2018).

Assays:
RA synovial fibroblasts = test: Cytokine synthesis (ELISA) in RA synovial fibroblasts stimulated with tenascin-C, FBG or LPS; type: cell-based, human; details: 24 h; for cytokine synthesis (IL-6, IL-8) in synovial fibroblasts: LPS 10 ng/ml
Excerpt: (§1) RA membrane cells (representing a mixed population of all synovial cell types) were to isolated from synovial membranes obtained from patients undergoing joint replacement surgery as previously described (Brennan (1989)). RA synovial fibroblasts were isolated from the mixed population of RA membrane cells as previously described (Brennan (1989)). The study was approved by the local Trust ethics committee (Riverside NHS Research Committee), and waste tissue (synovium after joint replacement surgery) was obtained only after receiving signed informed consent from the patient and anonymyzing the tissue to protect patient identity.
(§2) Immediately after isolation, RA membrane cells and macrophages were cultured at 1×10^5 cells/well in RPMI 1640 containing 10% (v/v) FBS and 100 U/ml (Units/ml) penicillin/streptomycin in 96-well tissue culture plates for 24 hours before stimulation. Synovial fibroblasts (used only at either passage number 2 or 3) were cultured at 1×10^4 cells/well in DMEM containing 10% (v/v) FBS and 100 U/ml penicillin/streptomycin in 96-well tissue culture plates for 24 hours before stimulation.
(§3) Cells were incubated for 24 hours at 37° C. with the indicated doses of tenascin-C and recombinant tenascin-C fragments (1.0 μM-1.0 nM). Cells were also stimulated where indicated with LPS (1 ng/ml for human macrophages, 10 ng/ml for human fibroblasts, RA membrane cells and HEKs, 100 ng/ml for MEFS and BMDMs and 10 ng/ml for HEKS), PAM3 (10 ng/ml for human macrophages, human fibroblasts, and HEKs, 100 ng/ml for MEFs and BMDMs), murine IL-1 (5 ng/ml for MEFS) and murine TNF-α (100 ng/ml for MEFS). Unless specifically stated otherwise rough LPS was used for in vitro studies.
(§4) Supernatants were subsequently examined for the presence of the cytokines TNF-α, IL-6, and IL-8 by enzyme-linked immunosorbent assay (ELISA) according to the manufacturer's instructions. Absorbance was read on a spectrophotometric ELISA plate reader (Labsystems Multiscan Biochromic, Vantaa, Finland) and analyzed using the Ascent software program (Thermo Labsystems, Altrincham, UK).

[1] = test system: primary human macrophages; test: Cytokine synthesis (ELISA) in primary human macrophages stimulated with tenascin-C or its domains; type: cell-based; details: 24 h
Protocol: Human monocytes were isolated from peripheral blood (London Blood Bank) and macrophages were derived from monocytes after differentiation for 4 days with 100 ng/ml of M-CSF as previously described (Foxwell (1998)).
as §2
Cells were incubated for 24 hours at 37° C. with the indicated doses of tenascin-C and recombinant tenascin-C fragments (1.0 μM-1.0 nM). […]
as §4

serum from RA patients = test: Western blot of citrullinated tenascin-C probed with serum from RA patients or healthy controls; type: binding, human; details: sera from RA patients or normal healthy controls
Protocol: 33.33 ul of citrullination reaction (cit-TNC alone or cit-TNC combined with cit-FBG) was loaded into NuPAGE® Novex 4-12% Bis-tris gel using a 1.0 mm 2D single lane well.
After electrophoresis proteins were transferred to nitrocellulose and the membrane blocked and then cut into strips (up to 8 strips ˜0.7 cm wide). Strips were incubated with serum from RA patients or normal healthy individuals diluted 1:100 in 5% milk TBS-tween. Strips were incubated in 15 ml falcon tubes on rollers 1 h room temperature, then washed 3×5 min, 1×15 min in tubes with TBS-Tween. Strips were then incubated with secondary mouse anti-human Ig 1:5000 1 h in room temperature, then washed 3×5 min, 1×15 min in the dish with TBS-tween. Strips were finally incubated with ECL reagents and exposed to film.

[2] = test system: synovial membranes from RA patients; test: Cytokine synthesis in RA synovial membrane cells stimulated with FBG; type: cell-based, human; details: FBG 1.0-0.01 μM, 24 h
Excerpt: as §1
Immediately after isolation, RA membrane cells and macrophages were cultured at 1×10^5 cells/well in RPMI 1640 containing 10% (v/v) FBS and 100 U/ml (Units/ml) penicillin/streptomycin in 96-well tissue culture plates for 24 hours before stimulation. […]
as §4

[3] = test system: embryonic fibroblasts or macrophages; test: Cytokine synthesis in embryonic fibroblasts or macrophages from MyD88, TLR2 or TLR4 deficient mice; type: cell-based; details: FBG 1 μM, 24 h
Protocol: MEFs express high levels of mRNA of all 9 murine TLRs and are specifically and highly responsive to TLR ligand activation. […] MEFs were isolated from d13 embryos harvested from age-matched, pregnant female wild type, TLR2, TLR4 and null mice (as described in Todaro (1963)). Fibroblasts were cultured at 2×10^4 cells/well in DMEM containing 10% (v/v) FBS and 100 U/ml penicillin/streptomycin in 96-well tissue culture plates for 24 hours before stimulation.
BMDMs were derived by aspirating the femurs of age matched female wild type, TLR2 and TLR4 null mice as described in Butler (1999)) and culturing the cells for 7 days in DMEM, 20% (v/v) FBS, 10 ml/L (v/v) antibiotic-antimycotic solution PSA, 50 μM β-Mercaptoethanol and 10 ng/ml M-CSF. Macrophages were then cultured at 1×10^5 cells/well in DMEM, 20% (v/v) FBS, 10 ml/L (v/v) antibiotic-antimycotic solution PSA, 50 μM β-Mercaptoethanol in 96-well tissue culture plates for 24 hours before stimulation.
as §3, §4

knee joint = test: Intra-articular injection of FBG into mouse knee joint, histology; type: in vivo, mice; details: for joint inflammation, histology: wild type mice
Protocol: Wild type mice were anesthetized by intraperitoneal injection of 150 μl of Hypnorm diluted 1:10 in sterile water and then injected with 100 ng, 1 or 3 μg FBG in 10 μl of sterile PBS into the right knee joint using a sterile 33-gauge microcannula. Control mice received an injection of 10 μl PBS alone or were not injected.
On days 3 and 7, mice were euthanized, the knee joints were excised and fixed in 10% (volume/volume) buffered formalin, decalcified, with 10% EDTA and processed to paraffin.
Coronal tissue sections (4 μm) were cut at 7 depths throughout the joint; 80 μm apart and stained with hematoxylin and eosin or Safranin-O to assess joint pathology. Histopathologic changes were scored using the following parameters as described in Van Lent (2006).
Inflammation (the influx of inflammatory cells into synovium (infiltrate) and the joint cavity (exudates), was graded using an arbitrary scale from 0 (no inflammation) to 3 (severe inflammation). Chondrocyte death was determined as the percentage of cartilage area containing empty lacunae in relation to the total area. Cartilage surface erosion was determined as the amount of cartilage lost in relation to the total cartilage area. Bone destruction was determined in 10 different areas of the total knee joint section. Destruction was graded on a scale of 0 (no damage) to 3 (complete loss of bone structure). Histological analysis was performed by an investigator who was blinded to the experimental groups. The mean score for each animal in an experimental group was calculated by averaging the histopathologic scores in at least 5 section depths per joint.

[4] = test system: human dermal fibroblasts (HDF); test: Cell adhesion to coated FBG, crystal violet; type: cell-based; details: coated wells, 45 minutes
Protocol: (§5) (A) The sequence identified to bind integrin αvβ3 is shown in white (Yokoyama et al., 2000). Within this sequence two Arginines (shown in black) were identified to be citrullinated. (B) Wells of a 96 well plate were coated with different concentrations of FBG, citrullinated FBG (cFBG), FBG incubated in buffer without Calcium (FBG —Ca^2+), or FBG incubated without PAD (FBG —PAD). As a positive control wells were coated with Fibronectin (FN) (1 ug/ml), and coating with BSA (10 mg/ml) served as negative control. Plates were incubated with human dermal fibroblasts (HDF) or synovial fibroblasts from RA patients (RAF) for 45 minutes and adhesion was measured by determining absorbance of attached cells after staining with crystal violet (0.1%). Data are shown as the mean of at least four independent experiments+s.e.m., *=p<0.05, **=p<0.01.

[5] = test system: synovial fibroblasts from RA joints (RAF); test: Cell adhesion to coated FBG, crystal violet; type: cell-based, human; details: coated wells, 45 minutes
Protocol: as §5

tenascin-C: purified recombinant full-length human tenascin-C, native (non-citrullinated)
TNF-α synthesis in fibroblasts (RA synovial fibroblasts): Neither LPS nor tenascin-C induced TNF-α synthesis | cytokine synthesis (IL-6, IL-8) in synovial fibroblasts (RA synovial fibroblasts): only induced IL-6 synthesis | production of TNF-α, IL-6 and IL-8 ([1]; human macrophages): dose dependently stimulated | reactivity with sera in blots (serum from RA patients): No reactivity

B1: FBG: recombinant fibrinogen-like globe domain of human tenascin-C (protein)
chain: GLLYPFPKDCSQAMLNGDTTSGLYTIYLNGDKAEALEVFCDMTSDGGGWIVFLRRKNGRENFYQNWKAYAAGFGDRREEFWLGLDNLNKITAQGQYELRVDLRDHGETAFAVYDKFSVGDAKTRYKLKVEGYSGTAGDSMAYHNGRSFSTFDKDTDSAITNCALSYKGAFWYRNCHRVNLMGRYGDNNHSQGVNWFHWKGHEHSIQFAEMKLRPSNFRNLEGRRKRA
modifications: left off: small tags and cut ends
notes: recombinant fibrinogen-like globe domain of human tenascin-C
synthesis of IL-6, IL-8 and TNF-α in RA synovial membranes [2]: further enhanced synthesis of all these cytokines | cytokine synthesis in MyD88 deficient embryonic fibroblasts ([3]; MyD88 -/-): does not stimulate cytokine synthesis | cytokine synthesis in TLR2 deficient embryonic fibroblasts or macrophages ([3]; TLR2 -/-): unaffected | cytokine synthesis in TLR4 deficient embryonic fibroblasts or macrophages ([3]; TLR4 -/-): does not stimulate cytokine synthesis | cytokine synthesis (IL-6, IL-8) in synovial fibroblasts (RA synovial fibroblasts): did not induce IL-8 synthesis | joint inflammation (knee joint; TLR2 null mice, 1 μg FBG intra-articular, 3 days): able to induce joint inflammation | joint inflammation, histology (knee joint; 100 ng FBG intra-articular): No inflammation or proteoglycan loss | joint inflammation, histology (knee joint; 1 μg FBG intra-articular, 3 days): inflammatory cell infiltration (FIG. 6f), mild synovitis, pannus formation (FIG. 6g) and proteoglycan loss (FIG. 6h) | joint inflammation, histology (knee joint; 3 μg FBG intra-articular): A similar response | TNF-α synthesis in human macrophages ([1]; 1.0 μM tenascin-C domains): stimulated | adhesion of HDF [4]: proadhesive | adhesion of RAF [5]: proadhesive
